In publication PMC12108596, “Functional Characterization of MIP_07528 of Mycobacterium indicus pranii for Tyrosine Phosphatase Activity Displays Sensitivity to Oxidative Inactivation and Plays a Role in Immunomodulation” (Biology, 2025):

Test system: O=[N+]([O-])c1ccc(OP(=O)(O)O)cc1
Assay: purified protein
[1] = pH 7.5 (20 mM Tris, 150 mM NaCl), 37 °C, 2-8 mM pNPP

Substance	Km (pH 7.5, 37.0 °C)	Km [1]	kcat [1]
rPtpB-Mtb (rMTBPtpB) (Mycobacterium tuberculosis H37Rv)	1010 µM	–	–
rMIP_07528 (rPtpB-MIP, rMIPPtpB) (Mycobacterium intracellulare ATCC 13950)	–	300 µM	0.005 s⁻¹
